Patent US20110136733A1 (IPSEN PHARMA S A S, published 2011)
Changes are numbered by the printed parent chain. Where no end group is shown, it is not given here. [ ]: non-standard residue; d: D form. The star is where a group is joined. Psu = N-propylsuccinimide on the Cys sulfur (from N-propylmaleimide), CCCN1C(=O)CC(*)C1=O; Myristoyl = CCCCCCCCCCCCCC(=O)*; Ac6c = NC1(C(=O)O)CCCCC1; Nle = CCCC[C@H](N)C(=O)O; Orn = NCCC[C@H](N)C(=O)O; Ac5c = NC1(C(=O)O)CCCC1; Aib = CC(C)(N)C(=O)O

B1: (Aib^2, A6c^7, Gln^43)hGIP(1-43)-OH (peptide)
peptide: Y[Aib]EGTF[Ac6c]SDYSIAMDKIHQQDFVNWLLAQKGKKNDWKHNITQQ-OH
B2: (Pro^3, A5c^11)hGIP(1-30)-NH2 (peptide)
peptide: YAPGTFISDYXIAMDKIHQQDFVNWLLAQK
modifications: A5c at 11; C-terminal amide
B3: (Aib^2, A6c^7, Nle^14)hGIP(1-42)-OH (peptide)
peptide: Y[Aib]EGTF[Ac6c]SDYSIA[Nle]DKIHQQDFVNWLLAQKGKKNDWKHNITQ-OH
B4: (Aib^2, A5c^11)hGIP(1-30)-NH2 (peptide)
peptide: B2 peptide with A2X, P3E
modifications: Aib at 2; A5c at 11; C-terminal amide
B5: (A5c^2, Nle^14)hGIP(1-42)-OH (peptide)
peptide: YXEGTFISDYSIAXDKIHQQDFVNWLLAQKGKKNDWKHNITQ
modifications: A5c at 2; Nle at 14; C-terminal free acid
B6: (Aib^2, A5c^7, A6c^14)hGIP(1-42)-OH (peptide)
peptide: B5 peptide with I7X
modifications: Aib at 2; A5c at 7; A6c at 14; C-terminal free acid
B7: (Aib^2, 12)hGIP(1-42)-OH (peptide)
peptide: B5 peptide with I12X, X14M
modifications: Aib at 2 and 12; C-terminal free acid
B8: (hPro^3, Aib^13, Nle^14)hGIP(1-42)-OH (peptide)
peptide: B5 peptide with X2A, E3X, A13X
modifications: hPro at 3; Aib at 13; Nle at 14; C-terminal free acid
B9: (D-Ala^2, A5c^11, 41)hGIP(1-42)-OH (peptide)
peptide: B5 peptide with X2A, S11X, X14M, T41X
modifications: D-Ala at 2; A5c at 11 and 41; C-terminal free acid
notes: X stands for the non-natural residue
B10: (Aib^2, A5c^7, 14)hGIP(1-42)-OH (peptide)
peptide: B5 peptide with I7X
modifications: Aib at 2; A5c at 7 and 14; C-terminal free acid
B11: (Pro^3, A6c^14)hGIP(1-42)-OH (peptide)
peptide: B5 peptide with X2A, E3P
modifications: A6c at 14; C-terminal free acid
B12: (Aib^2, 13, Nle^14)hGIP(1-42)-OH (peptide)
peptide: B5 peptide with A13X
modifications: Aib at 2 and 13; Nle at 14; C-terminal free acid
B13: (4Hppa^1, Aib^13)hGIP(1-42)-OH (peptide)
peptide: B5 peptide with Y1X, X2A, A13X, X14M
modifications: 4Hppa (3-(4-hydroxyphenyl)propionic acid) at 1; Aib at 13; C-terminal free acid
B14: (Aib^2, A5c^12)hGIP(1-42)-OH (peptide)
peptide: B5 peptide with I12X, X14M
modifications: Aib at 2; A5c at 12; C-terminal free acid
B15: (4Hyp^3, A6c^14)hGIP(1-42)-OH (peptide)
peptide: B5 peptide with X2A, E3X
modifications: 4Hyp at 3; A6c at 14; C-terminal free acid
B16: (D-Ala^2, A6c^11, 14, 41)hGIP(1-42)-OH (peptide)
peptide: B5 peptide with X2A, S11X, T41X
modifications: D-Ala at 2; A6c at 11, 14 and 41; C-terminal free acid
notes: as for B9
B17: (Pro^3, A5c^11, A6c^14)hGIP(1-42)-OH (peptide)
peptide: B5 peptide with X2A, E3P, S11X
modifications: A5c at 11; A6c at 14; C-terminal free acid
B18: (Aib^2, 11, Nle^14)hGIP(1-42)-OH (peptide)
peptide: B5 peptide with S11X
modifications: Aib at 2 and 11; Nle at 14; C-terminal free acid
B19: (Dhp^3, Aib^13, Nle^14)hGIP(1-42)-OH (peptide)
peptide: B5 peptide with X2A, E3X, A13X
modifications: Dhp at 3; Aib at 13; Nle at 14; C-terminal free acid
B20: (Tic^3, A5c^11, A6c^14)hGIP(1-42)-OH (peptide)
peptide: B5 peptide with X2A, E3X, S11X
modifications: Tic at 3; A5c at 11; A6c at 14; C-terminal free acid
B21: (D-Ala^2, A5c^11,40)hGIP(1-42)-OH (peptide)
peptide: B5 peptide with X2A, S11X, X14M, I40X
modifications: D-Ala at 2; A5c at 11 and 40; C-terminal free acid
notes: as for B9
B22: (A5c^2, 7, A6c^14)hGIP(1-42)-OH (peptide)
peptide: B5 peptide with I7X
modifications: A5c at 2 and 7; A6c at 14; C-terminal free acid
B23: (NMe-Tyr^1, Aib^2, A5c^11, Nle^14)hGIP(1-42)-OH (peptide)
peptide: B5 peptide with Y1X, S11X
modifications: NMe-Tyr at 1; Aib at 2; A5c at 11; Nle at 14; C-terminal free acid
B24: (Pro^3, Aib^13, Nle^14)hGIP(1-42)-OH (peptide)
peptide: B5 peptide with X2A, E3P, A13X
modifications: Aib at 13; Nle at 14; C-terminal free acid
B25: (Aib^2, A5c^11)hGIP(1-42)-OH (peptide)
peptide: B5 peptide with S11X, X14M
modifications: Aib at 2; A5c at 11; C-terminal free acid
B26: (Aib^2, A6c^14)hGIP(1-42)-OH (peptide)
peptide: B5 peptide
modifications: Aib at 2; A6c at 14; C-terminal free acid
B27: (Aib^2, A6c^7, 14)hGIP(1-42)-OH (peptide)
peptide: B5 peptide with I7X
modifications: Aib at 2; A6c at 7 and 14; C-terminal free acid
B28: (Aib^2, 11, A6c^14)hGIP(1-42)-OH (peptide)
peptide: B5 peptide with S11X
modifications: Aib at 2 and 11; A6c at 14; C-terminal free acid
B29: (Aib^2, A5c^11, A6c^14)hGIP(1-42)-OH (peptide)
peptide: B5 peptide with S11X
modifications: Aib at 2; A5c at 11; A6c at 14; C-terminal free acid
B30: (Aib^2, A5c^11, Nle^14)hGIP(1-42)-OH (peptide)
peptide: B5 peptide with S11X
modifications: Aib at 2; A5c at 11; Nle at 14; C-terminal free acid
B31: (Tic^3, A5c^11)hGIP(1-42)-OH (peptide)
peptide: B5 peptide with X2A, E3X, S11X, X14M
modifications: Tic at 3; A5c at 11; C-terminal free acid
B32: (Aib^2, 5)hGIP(1-42)-OH (peptide)
peptide: Y[Aib]EG[Aib]FISDYSIAMDKIHQQDFVNWLLAQKGKKNDWKHNITQ-OH
B33: (Aib^2, A6c^7)hGIP(1-42)-OH (peptide)
peptide: Y[Aib]EGTF[Ac6c]SDYSIAMDKIHQQDFVNWLLAQKGKKNDWKHNITQ-OH
B34: (D-Ala^2, A5c^11, His^43)hGIP(1-43)-OH (peptide)
peptide: YAEGTFISDYXIAMDKIHQQDFVNWLLAQKGKKNDWKHNITQH
modifications: D-Ala at 2; A5c at 11; C-terminal free acid
notes: as for B9
B35: (Gly^2, A5c^11, His^43)hGIP(1-43)-OH (peptide)
peptide: B34 peptide with A2G
modifications: A5c at 11; C-terminal free acid
B36: (Aib^2, A6c^7, 14)hGIP(1-30)-NH2 (peptide)
peptide: YXEGTFXSDYSIAXDKIHQQDFVNWLLAQK
modifications: Aib at 2; A6c at 7 and 14; C-terminal amide
B37: (Aib^2, A5c^7)hGIP(1-42)-OH (peptide)
peptide: Y[Aib]EGTF[Ac5c]SDYSIAMDKIHQQDFVNWLLAQKGKKNDWKHNITQ-OH
B38: (Aib^2, 13, Nle^14)hGIP(1-30)-NH2 (peptide)
peptide: B36 peptide with X7I, A13X
modifications: Aib at 2 and 13; Nle at 14; C-terminal amide
B39: (Aib^2, 13, Pro^3, Nle^14)hGIP(1-30)-NH2 (peptide)
peptide: Y[Aib]PGTFISDYSI[Aib][Nle]DKIHQQDFVNWLLAQK-NH2
B40: (Aib^2, A5c^5)hGIP(1-42)-OH (peptide)
peptide: Y[Aib]EG[Ac5c]FISDYSIAMDKIHQQDFVNWLLAQKGKKNDWKHNITQ-OH
B41: [Orn^1(N-C(O)-(CH2)12-CH3), A6c^7]hGIP(1-42)-OH (peptide)
peptide: [Orn](Myristoyl)AEGTF[Ac6c]SDYSIAMDKIHQQDFVNWLLAQKGKKNDWKHNITQ-OH
B42: (Aib^2, A5c^11, Nle^14)hGIP(1-30)-NH2 (peptide)
peptide: B36 peptide with X7I, S11X
modifications: Aib at 2; A5c at 11; Nle at 14; C-terminal amide
B43: (Aib^2, A5c^11, A6c^14)hGIP(1-30)-NH2 (peptide)
peptide: B36 peptide with X7I, S11X
modifications: Aib at 2; A5c at 11; A6c at 14; C-terminal amide
B44: [Aib^2, A6c^7, Cys(Psu)^38]hGIP(1-42)-OH (peptide)
peptide: Y[Aib]EGTF[Ac6c]SDYSIAMDKIHQQDFVNWLLAQKGKKNDWKC(Psu)NITQ-OH
B45: [Aib^2, A6c^7, Cys(Psu)^39]hGIP(1-42)-OH (peptide)
peptide: Y[Aib]EGTF[Ac6c]SDYSIAMDKIHQQDFVNWLLAQKGKKNDWKHC(Psu)ITQ-OH
B46: [Aib^2, A6c^7, Cys(Psu)^40]hGIP(1-42)-OH (peptide)
peptide: Y[Aib]EGTF[Ac6c]SDYSIAMDKIHQQDFVNWLLAQKGKKNDWKHNC(Psu)TQ-OH
B47: [Aib^2, A6c^7, Cys(Psu)^41]hGIP(1-42)-OH (peptide)
peptide: Y[Aib]EGTF[Ac6c]SDYSIAMDKIHQQDFVNWLLAQKGKKNDWKHNIC(Psu)Q-OH
notes: The synthesis text lists Fmoc-Ala-OH, not Aib, at the cycle for position 2
B48: (Aib^2, A6c^7)hGIP(1-30)-NH2 (peptide)
peptide: B36 peptide with X14M
modifications: Aib at 2; A6c at 7; C-terminal amide
B49: (Aib^2, 13)hGIP(1-30)-NH2 (peptide)
peptide: B36 peptide with X7I, A13X, X14M
modifications: Aib at 2 and 13; C-terminal amide
B50: (Aib^2, A5c^7, Nle^14)hGIP(1-42)-OH (peptide)
peptide: Y[Aib]EGTF[Ac5c]SDYSIA[Nle]DKIHQQDFVNWLLAQKGKKNDWKHNITQ-OH

Target: T1, human recombinant GIP receptor (human, UniProt P48546 22-466)
T1 construct: whole, on cells; Membranes of CHO-K1 cells expressing the receptor; also called hGIP receptor
T1 sequence (looked up): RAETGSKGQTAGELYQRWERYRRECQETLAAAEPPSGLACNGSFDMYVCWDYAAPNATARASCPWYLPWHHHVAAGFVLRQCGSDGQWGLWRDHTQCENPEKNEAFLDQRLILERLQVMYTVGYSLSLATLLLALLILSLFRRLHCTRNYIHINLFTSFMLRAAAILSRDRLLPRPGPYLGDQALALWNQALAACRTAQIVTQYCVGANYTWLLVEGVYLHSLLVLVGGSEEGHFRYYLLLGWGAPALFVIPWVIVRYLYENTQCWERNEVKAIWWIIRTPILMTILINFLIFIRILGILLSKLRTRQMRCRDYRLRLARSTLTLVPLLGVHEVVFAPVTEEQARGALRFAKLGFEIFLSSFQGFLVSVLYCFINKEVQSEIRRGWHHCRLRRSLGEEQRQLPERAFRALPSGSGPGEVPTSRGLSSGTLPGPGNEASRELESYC
Experiment: [125I]GIP competition, membranes of CHO-K1 cells expressing human GIP receptor

Binder	Ki [nM]
B1	0.94
B2	65.8
B3	0.45
B4	0.09
B5	15.9
B6	0.63
B7	4.98
B8	330
B9	0.36
B10	0.22
B11	214
B12	0.05
B13	2.25
B14	1.65
B15	910
B16	6.67
B17	648
B18	0.29
B19	727
B20	754
B21	0.59
B22	34.4
B23	0.19
B24	667
B25	0.08

Binder	Ki [nM]
B26	0.07
B27	0.83
B28	0.73
B29	0.18
B30	0.43
B31	503
B32	4.08
B33	0.3
B34	0.56
B35	0.97
B36	1.19
B37	0.41
B38	0.09
B39	0.07
B40	2.26
B41	21.5
B42	0.16
B43	0.15
B44	5.05
B45	13.8
B46	16
B47	63.6
B48	0.03
B49	0.33
B50	0.69
